Results: US20200376136A1 (Regeneron, published 2020)
Residue numbers refer to the chain shown, from its start.

T1: human six-transmembrane epithelial antigen of prostate 2 (STEAP2) (human, UniProt Q8NFT2 1-490)
T1 construct: also called hSTEAP2
T1 sequence: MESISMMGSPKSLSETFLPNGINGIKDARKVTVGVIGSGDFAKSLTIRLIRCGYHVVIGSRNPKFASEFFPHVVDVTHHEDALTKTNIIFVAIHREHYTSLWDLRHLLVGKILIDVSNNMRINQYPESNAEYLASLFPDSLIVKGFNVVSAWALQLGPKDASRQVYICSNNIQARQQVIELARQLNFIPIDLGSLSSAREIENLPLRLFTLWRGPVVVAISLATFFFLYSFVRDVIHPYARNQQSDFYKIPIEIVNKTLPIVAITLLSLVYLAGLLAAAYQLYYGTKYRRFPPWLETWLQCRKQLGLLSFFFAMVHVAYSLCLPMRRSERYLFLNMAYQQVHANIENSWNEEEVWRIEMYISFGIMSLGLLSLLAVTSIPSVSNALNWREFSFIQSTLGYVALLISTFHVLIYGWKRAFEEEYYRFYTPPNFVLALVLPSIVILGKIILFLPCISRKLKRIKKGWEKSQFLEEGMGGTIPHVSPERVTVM

B1: BSSTEAP2/CD3-011 (bispecific antibody, V domains shown)
VH 1: QVQLVESGGGVVQPGRSLGLSCAASGFTFSSYGMHWVRQAPGKGLEWVAVIWYDGSNKYYVDSVKGRFTISRDNSKNTLYLQMNSLRAEDTAVYYCAREGLRFLENYYYYYGMDVWGQGTTVTVSS
VH 2: EVQLVQSGGGLVQPGRSLRLSCAASGFTFADYTMHWVRQTPGKGLEWVSGISWNSGSKDYADSVKGRFTISRDNAKNSLYLQMNSLRTEDTALYYCAKYGSGYGRYFFYAMDVWGQGTTVTVSS
VL: EIVLTQSPGTLSLSPGERATLSCRASQSISSTYLAWYQQRPGQAPRLLIYGASSRATGIPDRFSGSGSGTDFTLTISRLEPEDFAVYYCQQYGTSPYTFGQGTKLEIK
notes: also called BSSTEAP2/CD3-0011
B2: H1H7809N (antibody, human IgG1, V domains shown)
VH: B1 VH 1
VL: B1 VL
B3: H1H7814N (antibody, human IgG1, V domains shown)
VH: QVQLVESGGGVVQPGRSLRLSCVASGFTISSYGMNWVRQAPGKGLEWVAVISYDGGNKYSVDSVKGRFTISRDNSKNTLYLQMNSLRAEDSAVYYCARGRYFDLWGRGTLVTVSS
VL: DIQMTQSPSTLSASVGDRVTITCRASQSISSWLAWYQQKPGRAPNLLISKASSLKSGVPSRFSGSGSGTEFTLTVSSLQPDDFATYYCQQYYSYSYTFGQGTKLEIK
B4: H1H7972P (antibody, human IgG1, V domains shown)
VH: QVQLQQSGPGLVKPSQTLSLTCAISGDSVSSNSAAWNWIRQSPSRGLEWLGRTYYRSKWYNDYVVSVKSRIIFNPDTSKNQFSLQLNSVTPEDTAVYYCARVRQDYRSGPFDYWGQGTLVTVSS
VL: EIVMTQSPVTLSVSPGERATLSCWASQSVSSSLAWYQQKPGQAPRLLIYGASTRATGIPARFSGSGSGTGFTLTISSLQSEDFAVYYCQQYNNWPFTFGPGTKVDIK
B5: H1H11162N (antibody, human IgG1, V domains shown)
VH: QVQLQQSGPGLVKPSQTLSLTCAISGDSVSSNRAAWNWIRQSPSRGLQWLGRTYYRSKWYNDYAVSLRSRITINPVTSKNQVALHMNSVTPEDTAVYYCARAGIVVVPGPETFYYYDHGLDVWGQGTTVTVSS
VL: DIQMTQSPSSLSASVGDRVTITCRASQSIRSYLNWYQQKPGKAPELLIHAASSLQSGVPSRFSGSGSGTDFTLTISSLQPEDFASYYCQQSYSAPPITFGQGTRLEIK
B6: H1H11163N (antibody, human IgG1, V domains shown)
VH: QVQLQQSGPGLVKPSQALSLTCAISGDSVSSNSAAWNWIRQSPSRGLEWLGRTYYRSKWYNDYAVSVKSRITINPDTSKNHFSLHLNSMTPEDTAVYYCARARIVVVPGPEVYYYYYYDMDVWGQGTTVTVSS
VL: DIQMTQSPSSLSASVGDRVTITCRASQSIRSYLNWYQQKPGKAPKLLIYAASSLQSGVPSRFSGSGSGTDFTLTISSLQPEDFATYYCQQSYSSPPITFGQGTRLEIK
B7: H1H11243N (antibody, human IgG1, V domains shown)
VH: B6 VH with A17T, H81Q, M89V, R103G, E111D, V112I, D119G
VL: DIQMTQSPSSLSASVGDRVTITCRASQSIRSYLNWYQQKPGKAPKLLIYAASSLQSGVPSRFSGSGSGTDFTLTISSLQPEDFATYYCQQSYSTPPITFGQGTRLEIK
B8: H1H11164N (antibody, human IgG1, V domains shown)
VH: B5 VH with A23V, S31T, R33S, Q48E, L67V, M86L, F113Y, D117Y
VL: B5 VL with S28N, E45K, A50V, S85T, A94T, Q101H
B9: H1H11878P (antibody, human IgG1, V domains shown)
VH: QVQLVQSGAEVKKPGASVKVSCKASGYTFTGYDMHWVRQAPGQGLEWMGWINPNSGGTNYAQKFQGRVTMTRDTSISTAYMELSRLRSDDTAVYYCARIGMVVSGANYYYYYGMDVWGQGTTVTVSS
VL: AIQMTQSPSSLSAYVGDRVIITCRASQGIRNDLGWYQQKPGKAPKLLIYAASSLQSGVPSRFSGSRSGTVFTLTISSLQPEDFATYYCLQDYNYPWTFGQGTKVEIK
B10: H1H11880P (antibody, human IgG1, V domains shown)
VH: EVQLVESGGGLVQPGGSLRLSCAASGFTFSTYAMHWVRQAPGKGLQHVSTISTNGVNTYYADSVKGRFTISRDNSKSTLYLQMGSLRAEDMAVYYCARDKDFWSGYFDYWGQGTLVTVSS
VL: EIVMTQSPGTLSVSPGERATLSCRASQSVSSNLAWYHQKPGQAPRLLIYGASTRATGFPARFSGSGSGTEFTLTISSLQSEDFAAYYCQQYNNWPITFGQGTRLEIK
B11: H1H11888P2 (antibody, human IgG1, V domains shown)
VH: QVQLQESGPGLVKPSQTLSLTCTVSGYSINSGGHFWSWIRQHPGKGLEWIGDIYYSGNTYSIPSLKRRISMSVDTSKNHFSLKLISVTAADTAIYYCARNSGGYLDAFDIWGQGTMVTVSS
VL: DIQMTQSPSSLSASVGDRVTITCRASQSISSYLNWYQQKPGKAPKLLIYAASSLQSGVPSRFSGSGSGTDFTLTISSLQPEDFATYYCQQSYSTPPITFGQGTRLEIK
B12: H1H11892P2 (antibody, human IgG1, V domains shown)
VH: EVQLVESGGGLVQPGGSLRLSCATSGFTFSNYDFHWVRQIRGQGLEWVSTIDTAGDTYFSGSVKGRFTISRDTAKTSLYLQMNSLRAGDTAVYYCARAPRYDSTGNYYNYYSYFGLDVWGQGTTVTVSS
VL: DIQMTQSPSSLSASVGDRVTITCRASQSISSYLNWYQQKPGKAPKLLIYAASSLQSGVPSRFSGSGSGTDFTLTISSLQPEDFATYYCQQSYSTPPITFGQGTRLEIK
B13: H1H11893P2 (antibody, human IgG1, V domains shown)
VH: QVQLVQSGAEVKKPGASVKVSCKVSGYTLTELSMHWVRQAPGKGLEWMGSFDPEDDETIYAQKFQGRVTMTEDTSTDTAYMDLSSLRSEDTAVYYCSIEEVRWRGSDYYYVMDVWGQGTTVTVSS
VL: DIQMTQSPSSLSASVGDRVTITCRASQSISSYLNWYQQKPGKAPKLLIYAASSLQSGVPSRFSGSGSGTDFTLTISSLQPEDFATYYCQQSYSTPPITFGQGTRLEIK
B14: H1H7810N (antibody, human IgG1, V domains shown)
VH: B3 VH with V23A, A24V, I29S, S31T, G56S, S60Y, V61A, A88P, S91T
VL: B3 VL with S28I, R42K, N45K, S49Y, K55A, V75I, Y92K
B15: H1H7811N (antibody, human IgG1, V domains shown)
VH: QVQLVESGGGVVQPGRSLRLSCAVSGFTSSTYGMNWVRQAPGKGLEWVAVISFDGSNKYYADSVKGRFTISRDNSKNTLYLQMSSLRPEDTAVYYCARGRYFDLWGRGTLVTVSS
VL: B3 VL with I2T, S28I, R42K, N45K, S49Y, K55A, V75I, Y92K, K103N
B16: H1H11894P2 (antibody, human IgG1, V domains shown)
VH: QVQLVQSGAEVKKPGSSVKVSCRASGGTFSRFAIGWVRQAPGQGLEWMGGIIPIFGTASYAQKFQGRVTITTDESTSTAYMELRSLRSEDTAVYYCTREGITGRGYYYYGMDVWGQGTTVTVSS
VL: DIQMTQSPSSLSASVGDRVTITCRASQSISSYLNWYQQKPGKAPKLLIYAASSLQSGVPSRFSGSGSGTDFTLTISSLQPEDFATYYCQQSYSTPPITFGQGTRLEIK
B17: H1H11895P2 (antibody, human IgG1, V domains shown)
VH: QVQLQESGPGLVKPSETLSLTCTVSGGSISIYYWTWIRQPPGKGLEWIGNIFYSGSTNYNPSLKSRVTISVDTSKNQFSLKLSSVTAADTAVYYCARERLGRYDAFDNWGQGTMVTVSS
VL: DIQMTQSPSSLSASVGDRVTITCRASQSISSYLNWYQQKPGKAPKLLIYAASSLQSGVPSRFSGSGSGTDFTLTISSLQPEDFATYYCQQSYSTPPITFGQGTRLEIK
B18: H1H11896P2 (antibody, human IgG1, V domains shown)
VH: EVQLVESGGGLVQPGGSLRLSCAASRFTFSSYAMSWVRQAPGKGLEWVSLISGSGGRTWYADSVKGRFTISRDNSKNTLFLQMNSLRAEDTAVYYCAKEGGIFGVVTFFDYWGQGTLVTVSS
VL: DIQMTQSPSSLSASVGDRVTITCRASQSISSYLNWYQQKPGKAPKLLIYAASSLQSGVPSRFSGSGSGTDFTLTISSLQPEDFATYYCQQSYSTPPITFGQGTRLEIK
B19: H1H11897P2 (antibody, human IgG1, V domains shown)
VH: EVQLVESGGGLVQPGGSLRLSCAVSGFTFSSYAMSWVRQAPGKGLEWVSVISGSGDFTYHADSVKGRFTISRDNSKSTLYLQLNSLRAEDTAVYYCAKKGLRYFDWYDYWGQGTLVTVSS
VL: not shown

Tests used:
human CD3 [1] = target: T2, human CD3 (human, UniProt P07766 23-207; P04234 22-171); test: cell-based or functional assay
human CD3 [2] = target: T2, human CD3; test: FACS titration on Jurkat cells (human CD3)
Experimental: Flow cytometric analysis was utilized to determine binding of STEAP2×CD3 bispecific antibodies to Jurkat, PC3_STEAP2/1 chimeric and cynomolgus T cells, followed by detection with a phycoerythrin (PE)-labeled anti-human IgG antibody. […] After incubation, the cells were washed twice with cold PBS containing 1% filtered FBS and a PE-conjugated anti-human secondary antibody was added to the cells and incubated for an additional 30 minutes. Wells containing no antibody or secondary antibody only were used as a control. After incubation, cells were washed, re-suspended in 200 μL cold PBS containing 1% filtered FBS and analyzed by flow cytometry on a BD FACS Canto II.

[3] = target: T1, human six-transmembrane epithelial …; test: FACS on HEK293 cells (low STEAP2), MFI fold above unstained, average at 100-300 nM antibody
Experimental: (§1) Briefly, 1×10⁵ cells were incubated with 10 μg/ml of anti STEAP2 antibodies, or isotype control antibodies for 30 min on ice in antibody dilution buffer. Following one wash with antibody dilution buffer, cells were incubated with 10 μg/ml of PE conjugated anti-human or antimouse Fc secondary antibodies for 30 min on ice. Following one additional wash, samples were incubated with Cytofix (1% formaldehyde) for 20 minutes. After one final wash, samples were filtered through a Pall 96 well filtration block, run on a Hypercyt® cytometer and analyzed in ForeCyt™ (IntelliCyt, Albuquerque, N. Mex.). Mean fluorescence intensities (MFI) were expressed as fold change above unstained levels (background). The average fold above background at antibody concentrations of 100-300 nM were determined.

[4] = target: T1, human six-transmembrane epithelial …; test: FACS titration on C4-2 cells (endogenous STEAP2), 4-parameter fit
Experimental: as §1

[5] = target: T1, human six-transmembrane epithelial …; test: FACS on C4-2 cells (endogenous STEAP2), MFI fold above unstained, average at 100-300 nM antibody
Experimental: as §1

T2 sequence (P07766 23-207 limits assumed, chain 1 of 2): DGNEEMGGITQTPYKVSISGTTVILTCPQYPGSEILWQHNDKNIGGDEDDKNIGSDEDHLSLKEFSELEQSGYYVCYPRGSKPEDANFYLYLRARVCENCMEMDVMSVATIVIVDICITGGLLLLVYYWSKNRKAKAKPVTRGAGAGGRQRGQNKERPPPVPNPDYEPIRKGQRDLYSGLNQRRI
T2 sequence (P04234 22-171 limits assumed, chain 2 of 2): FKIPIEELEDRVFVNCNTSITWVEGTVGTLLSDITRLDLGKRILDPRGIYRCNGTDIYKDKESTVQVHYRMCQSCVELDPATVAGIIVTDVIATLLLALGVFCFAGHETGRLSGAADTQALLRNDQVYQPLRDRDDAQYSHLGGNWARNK

| Binder | hPBMC Proliferation [M] (EC50, with anti-CD28) (human CD3 [1]) | EC50 (human CD3 [2]) | Avg F.A.B (fold above background) [3] | EC50 [4] | Avg F.A.B (fold above background) [5] |
| --- | --- | --- | --- | --- | --- |
| B1 | 8.62e-12 M | 8.63 nM | – | – | – |
| B2 | – | – | 31 fold above background | > 50 nM | 89 fold above background |
| B3 | – | – | 2 fold above background | 4 nM | 96 fold above background |
| B4 | – | – | 4 fold above background | 9 nM | 119 fold above background |
| B5 | – | – | 10 fold above background | 1 nM | 104 fold above background |
| B6 | – | – | 6 fold above background | 3 nM | 90 fold above background |
| B7 | – | – | 3 fold above background | – | 41 fold above background |
| B8 | – | – | 10 fold above background | 2 nM | 117 fold above background |
| B9 | – | – | 5 fold above background | > 50 nM | 27 fold above background |
| B10 | – | – | 7 fold above background | 5 nM | 6 fold above background |
| B11 | – | – | 9 fold above background | 3 nM | 6 fold above background |
| B12 | – | – | 3 fold above background | – | 4 fold above background |
| B13 | – | – | 3 fold above background | 21 nM | 9 fold above background |
| B14 | – | – | 3 fold above background | – | 26 fold above background |
| B15 | – | – | 5 fold above background | > 50 nM | 65 fold above background |
| B16 | – | – | 4 fold above background | – | 7 fold above background |
| B17 | – | – | 4 fold above background | 16 nM | 6 fold above background |
| B18 | – | – | 7 fold above background | 21 nM | 6 fold above background |
| B19 | – | – | 16 fold above background | > 50 nM | 29 fold above background |
